Substitutions are numbered along the chain they refer to. In names and notes the source's numbering stands.
T1: B7H3 (CD276) (human, UniProt Q5ZPR3 29-534)
T1 construct: whole, on cells
T1 sequence (looked up): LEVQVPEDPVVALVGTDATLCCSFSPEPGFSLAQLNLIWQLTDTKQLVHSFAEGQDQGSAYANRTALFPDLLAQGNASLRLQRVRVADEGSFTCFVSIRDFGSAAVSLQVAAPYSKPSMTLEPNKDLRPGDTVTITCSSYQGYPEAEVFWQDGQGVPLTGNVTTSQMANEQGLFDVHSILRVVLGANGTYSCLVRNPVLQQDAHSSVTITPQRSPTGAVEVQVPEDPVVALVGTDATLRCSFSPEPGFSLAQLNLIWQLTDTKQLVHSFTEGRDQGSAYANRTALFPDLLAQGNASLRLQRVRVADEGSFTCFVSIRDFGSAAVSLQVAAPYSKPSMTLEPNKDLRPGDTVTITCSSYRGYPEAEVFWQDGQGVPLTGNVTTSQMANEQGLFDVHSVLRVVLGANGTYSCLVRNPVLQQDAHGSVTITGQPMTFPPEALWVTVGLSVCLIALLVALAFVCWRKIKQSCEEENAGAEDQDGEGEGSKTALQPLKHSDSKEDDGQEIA

B1: cx6083 (bispecific antibody)
chain 1: EVQLVESGGGLVQPGGSLRLSCAASGFTFSSFGMHWVRQAPGKGLEWVAYISSDSSAIYYADTVKGRFTISRDNAKNSLYLQMNSLRDEDTAVYYCGRGRENIYYGSRLDYWGQGTTVTVSSASTKGPSVFPLAPSSKSTSGGTAALGCLVKDYFPEPVTVSWNSGALTSGVHTFPAVLQSSGLYSLSSVVTVPSSSLGTQTYICNVNHKPSNTKVDKKVEPKSCDKTHTCPPCPAPPVAGPSVFLFPPKPKDTLMISRTPEVTCVVVDVKHEDPEVKFNWYVDGVEVHNAKTKPREEEYNSTYRVVSVLTVLHQDWLNGKEYKCKVSNKALPAPIEKTISKAKGQPREPQVYTLPPSREEMTKNQVSLTCDVSGFYPSDIAVEWESDGQPENNYKTTPPVLDSDGSFFLYSKLTVDKSRWEQGDVFSCSVMHEALHNHYTQKSLSLSPGKGGGGSGGGGSGGGGSEVQLVESGGGLVQPGGSLRLSCAASGFTFSTYAMNWVRQAPGKCLEWVGRIRSKYNNYATYYADSVKGRFTISRDDSKNTLYLQMNSLRAEDTAVYYCVRHGNFGDSYVSWFAYWGQGTLVTVSS
chain 2: EVQLVESGGGLVQPGGSLRLSCAASGFTFSSFGMHWVRQAPGKGLEWVAYISSDSSAIYYADTVKGRFTISRDNAKNSLYLQMNSLRDEDTAVYYCGRGRENIYYGSRLDYWGQGTTVTVSSASTKGPSVFPLAPSSKSTSGGTAALGCLVKDYFPEPVTVSWNSGALTSGVHTFPAVLQSSGLYSLSSVVTVPSSSLGTQTYICNVNHKPSNTKVDKKVEPKSCDKTHTCPPCPAPPVAGPSVFLFPPKPKDTLMISRTPEVTCVVVDVKHEDPEVKFNWYVDGVEVHNAKTKPREEQYNSTYRVVSVLTVLHQDWLNGKEYKCKVSNKALPAPIEKTISKAKGQPREPQVYTLPPSREQMTKNQVKLTCLVKGFYPSDIAVEWESNGQPENNYKTTPPVLDSDGSFFLYSKLTVDKSRWQQGNVFSCSVMHEALHNHYTQKSLSLSPGKGGGGSGGGGSGGGGSQAVVTQEPSLTVSPGGTVTLTCGSSTGAVTTSNYANWVQQKPGKSPRGLIGGTNKRAPGVPARFSGSLLGGKAALTISGAQPEDEADYYCALWYSNHWVFGCGTKLTVL
light: DIQLTQSPSFLSASVGDRVTITCKASQNVDTNVAWYQQKPGKAPKALIYSASYRYSGVPSRFSGSGSGTDFTLTISSLQPEDFATYYCQQYNNYPFTFGQGTKLEIKRTVAAPSVFIFPPSDEQLKSGTASVVCLLNNFYPREAKVQWKVDNALQSGNSQESVTEQDSKDSTYSLSSTLTLSKADYEKHKVYACEVTHQGLSSPVTKSFNRGEC
notes: Three polypeptides; B7H3 Fab on both Fc chains; anti-CD3 Fv disulfide-stabilized (VH G44C / VL G100C); also called MAB-dsFV; B7H3-targeted constrained CD3 engaging construct (Fab format)
B2: cx6084 (bispecific antibody, human IgG1, kappa)
chain 1: B1 chain 1 with S496N, G515A, S543A, N552S, D572N, S590K, S591P
chain 2: B1 chain 2 with K510Q, S511A, P512F, T573E, V574I, L575K
light: B1 light
notes: as for B1
B3: cx6080 (bispecific antibody)
chain 1: EVQLVESGGGEVQPGGSLRLSCAASGFSFSSNVMMWVRQAPGKGLEWVSTIYSSGTGTFYAESVKGRFTISRDNAKNTLYLQMSSLRPEDTAVYYCATSGPVRGWGPRSQGTLVTVKPPGGGGDKTHTCPPCPAPPVAGPSVFLFPPKPKDTLMISRTPEVTCVVVDVKHEDPEVKFNWYVDGVEVHNAKTKPREEEYNSTYRVVSVLTVLHQDWLNGKEYKCKVSNKALPAPIEKTISKAKGQPREPQVYTLPPSREEMTKNQVSLTCDVSGFYPSDIAVEWESDGQPENNYKTTPPVLDSDGSFFLYSKLTVDKSRWEQGDVFSCSVMHEALHNHYTQKSLSLSPGKGGGGSGGGGSGGGGSEVQLVESGGGLVQPGGSLRLSCAASGFTFSTYAMNWVRQAPGKCLEWVGRIRSKYNNYATYYADSVKGRFTISRDDSKNTLYLQMNSLRAEDTAVYYCVRHGNFGDSYVSWFAYWGQGTLVTVSS
chain 2: EVQLVESGGGEVQPGGSLRLSCAASGFSFSSNVMMWVRQAPGKGLEWVSTIYSSGTGTFYAESVKGRFTISRDNAKNTLYLQMSSLRPEDTAVYYCATSGPVRGWGPRSQGTLVTVKPPGGGGDKTHTCPPCPAPPVAGPSVFLFPPKPKDTLMISRTPEVTCVVVDVKHEDPEVKFNWYVDGVEVHNAKTKPREEQYNSTYRVVSVLTVLHQDWLNGKEYKCKVSNKALPAPIEKTISKAKGQPREPQVYTLPPSREQMTKNQVKLTCLVKGFYPSDIAVEWESNGQPENNYKTTPPVLDSDGSFFLYSKLTVDKSRWQQGNVFSCSVMHEALHNHYTQKSLSLSPGKGGGGSGGGGSGGGGSQAVVTQEPSLTVSPGGTVTLTCGSSTGAVTTSNYANWVQQKPGKSPRGLIGGTNKRAPGVPARFSGSLLGGKAALTISGAQPEDEADYYCALWYSNHWVFGCGTKLTVL
notes: Heterodimer of chain 1 and chain 2; anti-CD3 Fv disulfide-stabilized (VH G44C / VL G100C); two identical B7H3 sdAbs, both N-terminal to the Fc; also called cs6080; B7H3-targeting constrained CD3 engaging construct
B4: cx1356 (bispecific antibody)
chain 1: not shown
chain 2: QLQLQESGGGLVQPGGSLRLSCAASGFTLDNYAIGWFRQAPGKEREGVSCISSSDGSTYYADSVKGRFTISRNNAKGTVYLLMNSLKPEDTAVYYCATELVPACTYSNGRGPLDGMDYWGKGTQVTVKPPGGGGDKTHTCPPCPAPELLGGPSVFLFPPKPKDTLMRSRTPEVTCVVVDVSHEDPEVKFNWYVDGVEVHNAKTKPREEQYNSTYRVVSVLTVLHQDWLNGKEYKCKVSNKALPAPIEKTISKAKGQPREPQVCTLPPSRDELTKNQVSLSCAVKGFYPSDIAVEWESNGQPENNYKTTPPVLDSDGSFFLVSKLTVDKSRWQQGNVFSCSVMHEALHNHYTQKSLSLSPGGSQAVVTQEPSLTVSPGGTVTLTCGSSTGAVTTSNYANWVQQKPGKSPRGLIGGTNKRAPGVPARFSGSLLGGKAALTISGAQPEDEADYYCALWYSNHWVFGCGTKLTVLGGGGEVQLLESGGGEVQPGGSLRLSCAASGSIFSIDATAWYRQAPGKQRELVAIITSSGSTNYPESVKGRFTISRDNAKNTVYLQMSSLRAEDTAVYYCNAITRYGGSTYDFWGQGTLVTVKP
notes: Heterodimer of chain 1 and chain 2; anti-CD3 Fv disulfide-stabilized (VH G44C / VL G100C); the shortest entry is written; also called FRα-targeting constrained CD3 engaging construct; gs3 linker
B5: cx681 (bispecific antibody)
chain 1: not shown
chain 2: QLQLQESGGGLVQPGGSLRLSCAASGFTLDNYAIGWFRQAPGKEREGVSCISSSDGSTYYADSVKGRFTISRNNAKGTVYLLMNSLKPEDTAVYYCATELVPACTYSNGRGPLDGMDYWGKGTQVTVKPPGGGGDKTHTCPPCPAPELLGGPSVFLFPPKPKDTLMRSRTPEVTCVVVDVSHEDPEVKFNWYVDGVEVHNAKTKPREEQYNSTYRVVSVLTVLHQDWLNGKEYKCKVSNKALPAPIEKTISKAKGQPREPQVCTLPPSRDELTKNQVSLSCAVKGFYPSDIAVEWESNGQPENNYKTTPPVLDSDGSFFLVSKLTVDKSRWQQGNVFSCSVMHEALHNHYTQKSLSLSPGGSGGGGSGGGGSGGGGSQAVVTQEPSLTVSPGGTVTLTCGSSTGAVTTSNYANWVQQKPGKSPRGLIGGTNKRAPGVPARFSGSLLGGKAALTISGAQPEDEADYYCALWYSNHWVFGCGTKLTVLGGGGEVQLLESGGGEVQPGGSLRLSCAASGSIFSIDATAWYRQAPGKQRELVAIITSSGSTNYPESVKGRFTISRDNAKNTVYLQMSSLRAEDTAVYYCNAITRYGGSTYDFWGQGTLVTVKP
notes: Heterodimer of chain 1 and chain 2; anti-CD3 Fv disulfide-stabilized (VH G44C / VL G100C); the shortest entry is written; also called FRα-targeting constrained CD3 engaging construct; gs18 linker

Assays:
[1] = target: T2, CD3 on the surface of primary T cells (human, UniProt P07766 23-207); assay: flow cytometry on isolated primary human T cells
T2 construct: whole, on cells; CD3 is a multimeric complex (ε, γ, δ, ζ chains) with the TCR; In the reporter assays CD3 stood on Jurkat cells; also called CD3ε
T2 sequence (P07766 23-207): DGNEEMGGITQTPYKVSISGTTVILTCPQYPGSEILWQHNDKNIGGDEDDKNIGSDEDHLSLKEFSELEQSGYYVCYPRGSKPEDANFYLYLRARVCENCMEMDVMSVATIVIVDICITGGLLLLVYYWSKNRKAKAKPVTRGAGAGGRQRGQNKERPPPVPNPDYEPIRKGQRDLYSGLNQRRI
Description: (§1) Binding of exemplary multispecific constructs containing an antigen-binding domain directed against B7H3 were assessed for binding to B7H3 positive A375 tumor cells or primary T-cells. The constructs were generated containing antigen-binding domain(s) that were either sdAbs or a FABs, and that were positioned either only N-terminal to the Fc or both N-terminal to the Fc and C-terminal to the anti-CD3 binding domain (see FIGS. 3A and 3C and Table E1.1). Among the various formats of constructs tested included: sdAb-Fc-dsFV-sdAb (cx3072, cx5952) sdAb-Fc-FV (cx6079), sdAb-Fc-dsFV (cs6080, cx6081), MAB-FV (cx5067) and MAB-dsFV (cx6083, cx6084), where the FV represents the anti-CD3 binding domain composed of VH and VL domain pairs and “ds” notes disulfide stabilized via an engineered interdomain disulfide bond.
(§2) Binding was assessed as described above via flow cytometry using a fluorophore-conjugated anti-human Fc secondary antibody. cx3072 bound to A375 cells with high affinity (FIG. 6A) but not to isolated T-cells (FIG. 6B). […] The B7H3-targeting sdAb containing constructs (cx5952, cx6079, cx6080, and cx6081) bound to B7H3 positive cells with similar affinities (depicted in FIG. 6E), with cx5952 displaying higher maximal binding. cx6079, cx6080 and cx6081 contain two identical B7H3-targeting sdAbs, whereas cx5952, and cx3072 contain two distinct B7H3-targeting sdAb that bind different epitopes. The MAB-FV, cx5067, contains two identical B7H3-targeting FAB domains.

[2] = target: T1, B7H3 (CD276); assay: flow cytometry on A375 cells, anti-human Fc secondary
Description: as §1, §2

[3] = target: T1, B7H3 (CD276); assay: flow cytometry on A375 cells
Description: as §1
Binding was assessed as described above via flow cytometry using a fluorophore-conjugated anti-human Fc secondary antibody. cx3072 bound to A375 cells with high affinity (FIG. 6A) but not to isolated T-cells (FIG. 6B). […]

[4] = target: T2, CD3 on the surface of primary T cells; assay: flow cytometry on isolated primary T cells, anti-human IgG Fc secondary
Description: (§3) Binding of exemplary multispecific polypeptide constructs of the disclosure containing an antigen-binding domain directed against Folate Receptor Alpha (FRα) to CD3 on the surface of primary T cells and to FRα expressing cells (Ovcar-5) was assessed by flow cytometry. The tumor antigen binding domains of the tested constructs bind the Folate Receptor Alpha (FRα), which is not expressed on the primary T cells. The tested constructs included cx1356 and cx681, containing a non-cleavable linker of 3 amino acids in cx1356 or a non-cleavable linker of 18 amino acids in cx681 (see FIG. 2B and Table E1.1).
(§4) For the studies described in FIGS. 5A and 5B, 100 nM of each construct, cx1356 or cx681 was used and assessed for binding to either the Ovcar-5 cells or primary T-cells. An anti-CD3 antibody was included as a control. A titration of the constrained CD3 engaging constructs on either FRα expressing cells (Ovcar-5; FIG. 5C) or isolated primary T-cells (FRα negative; FIG. 5D), was conducted to assess binding. Bound constructs were detected using fluorophore-conjugated anti-human IgG Fc secondary antibody.

[5] = target: T3, Folate Receptor Alpha (FRα) (UniProt P15328 25-234, limits assumed); assay: flow cytometry on Ovcar-5 cells, anti-human IgG Fc secondary
T3 construct: whole, on cells; also called FR-Alpha
T3 sequence (P15328 25-234 limits assumed): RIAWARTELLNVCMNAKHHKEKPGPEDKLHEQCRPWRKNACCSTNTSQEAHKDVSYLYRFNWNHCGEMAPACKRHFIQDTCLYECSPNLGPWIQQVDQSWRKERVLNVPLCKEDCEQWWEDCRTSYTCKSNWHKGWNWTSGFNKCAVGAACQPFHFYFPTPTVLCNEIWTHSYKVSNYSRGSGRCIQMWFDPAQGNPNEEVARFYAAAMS
Description: as §3, §4

Binder	binding result [1]	binding result [2]	binding result [3]	binding result [4]	binding result [5]
B1	no binding	binds			
B2	no binding	binds			
B3	no binding		binds		
B4				no binding (tested: 100 nM)	binds
B5				no binding (tested: 100 nM)	binds

From patent US20230295336A1 (INHIBRX, published 2023)
